# {GalNAc3} = trishexylamino-C6 triantennary GalNAc conjugate
# Experiments:
# CYP1A2 mRNA = CYP1A2 mRNA induction in plated human hepatocytes; details: ASO 100 μM, human hepatocytes 72 hr, vs PBS 1% vehicle, mean ± SD of triplicate
# Description: Upon receipt, sandwich-cultured cryopreserved human hepatocytes (with Matrigel) plated on collagen-coated 24-well plates were inspected under a microscope for general morphology and viability. Fresh culture medium (OptiCulture Hepatocyte Media) was added to each plate that passed the visual inspection. The plates were then placed in an incubator set to 37°C with 5% carbon dioxide (CO2) for overnight acclimation. […] During this time, cells in parallel wells were also treated with 50.0 μM omeprazole (inducer of CYP1A2), 1,000 μM phenobarbital (inducer of CYP2B6), or 10.0 μM rifampicin (inducer of CYP3A4) in triplicate, respectively.
# After collection of the supernatant for catalytic analysis, the remaining cells were washed and lysed with QIAGEN Buffer RLT from the QIAGEN RNeasy Kit. […]
# The activity of each CYP enzyme was measured by comparing the peak area ratio of the corresponding product to the peak area ratio of the internal standard. The fold induction was calculated by dividing the peak area ratio of each individual well from the treatment group by the mean of the peak area ratios obtained from the vehicle control wells. […] The ΔCƬ was calculated as follows: ΔCƬ = CƬ (CYP) − CƬ (GAPDH). […] The ΔΔCƬ was calculated as follows: ΔΔCƬ = Δ CƬ (Treatment) − Δ CƬ (Vehicle). The fold induction of the target CYP was calculated using the following equation: Fold=2^-ΔΔCT.
# OATP1B3 = test system: T1, OATP1B3; experiment: OATP1B3 inhibition study in MDCK cells; type: in vitro ADME; details: 100 μM ASO, 2 μM CCK-8
# T1 construct: expressed in transfected cells; host or cells: MDCK-II
# Description: A 96-well cell culture plate containing a monolayer of MDCK-II cells grown on a permeable support and a corresponding receiver tray was used. The basolateral compartment of the culture plate and wells were washed with warm HBSS three times, with wells of the culture plate serving as the apical compartment. The wash was aspirated by adding 150 μL of 37°C HBSS to both compartments. Plates were incubated at 37°C with orbital shaking at 60 rpm for 15 min for OAT1, OAT3, OCT1, OCT2, OATP1B1, and OATP1B3 (±5 min). The pre-incubation buffer from both compartments was aspirated and 150 μL of the following was added to the basal compartment. […] Samples containing probe substrate were added to 200 μL of scintillation fluid and counted on a 1450 Microbeta (PerkinElmer), whereas samples containing the test article were kept frozen. Test article concentrations, including control samples, were evaluated by an LC-MS method.
# Signal to noise for probe substrates was calculated by dividing the uptake of the probe substrate in transporter-expressing cells by the uptake of probe substrate in control cells not expressing the transporter of interest. […]
substance,measurement,setting,value
"ISIS 681257: 20-mer 2′-MOE gapmer PS/PO mixed backbone ASO conjugated to 5′-trishexylamino GalNAc3, targets Lp(a), sequence TGCTCCGTTGGTGCTTGTTC (5' {GalNAc3}, sugars by position and backbone not given here; 2'-MOE gapmer with mixed PS/PO backbone)",Fold induction of CYP1A2 mRNA,CYP1A2 mRNA,1.71 ± 0.0853 fold
same,"Enhancement of probe substrate uptake, OATP1B3",OATP1B3,38.3%

# Reference: publication PMC5602538, “Assessment of the Drug Interaction Potential of Unconjugated and GalNAc3-Conjugated 2′-MOE-ASOs” (Molecular Therapy. Nucleic Acids, 2017)
